Experimental data reported in patent US20220195407, “OPTIMIZATION OF ENGINEERED MEGANUCLEASES FOR RECOGNITION SEQUENCES” (Precision BioSciences, Inc., published 2022).

How the values were obtained:
Experiment in all cases: cell_activity; CHO iGFFP reporter
LOX 3-4m.1506 = target: T1, LOX 3-4m.1506 (artificial (I-CreI derived))
T1 chain: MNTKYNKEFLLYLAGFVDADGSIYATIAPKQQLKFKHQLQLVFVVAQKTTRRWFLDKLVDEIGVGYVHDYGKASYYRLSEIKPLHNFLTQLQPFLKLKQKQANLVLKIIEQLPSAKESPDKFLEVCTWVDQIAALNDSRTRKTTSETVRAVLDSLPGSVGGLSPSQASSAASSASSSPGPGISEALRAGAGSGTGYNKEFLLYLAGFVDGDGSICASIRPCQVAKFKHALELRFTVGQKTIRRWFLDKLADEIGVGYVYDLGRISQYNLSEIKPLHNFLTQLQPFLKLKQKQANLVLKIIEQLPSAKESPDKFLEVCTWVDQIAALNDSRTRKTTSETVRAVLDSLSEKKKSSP
Source text: (§1) A CHO cell reporter system (see WO/2012/167192, FIG. 3) was used to determine whether the engineered meganucleases generated in these studies could recognize and cleave the modified LOX 3-4 recognition sequences in Table 87. To perform the assay, a pair of CHO cell reporter lines were produced, which carried a non-functional Green Fluorescent Protein (GFP) gene expression cassette integrated into the genome of the cell. The GFP gene in each cell line was interrupted by a pair of recognition sequences such that intracellular cleavage of either recognition sequence by a meganuclease would stimulate a homologous recombination event resulting in a functional GFP gene. In both cell lines, one of the recognition sequences was derived from the LOX 3-4 recognition sequence (i.e., those sequences disclosed in Table 87), and the second recognition sequence was specifically recognized by a control meganuclease called “CHO 23/24.” CHO reporter cells comprising a recognition sequence derived from the LOX 3-4 recognition sequence and the CHO 23/24 recognition sequence are referred to herein as “test cells.”
(§2) Novel engineered meganucleases derived from the LOX 3-4x.109 meganuclease were prepared by making amino acid substitutions at one or more positions in the first subunit and one or more positions in the second subunit. These engineered meganucleases were then evaluated for cleavage of the LOX 3-4 recognition sequence modified to have an ATGA center sequence (SEQ ID NO: 220) in the CHO reporter assay according to Example 1.

LOX 3-4m.1486 = target: T2, LOX 3-4m.1486 (artificial (I-CreI derived))
T2 chain: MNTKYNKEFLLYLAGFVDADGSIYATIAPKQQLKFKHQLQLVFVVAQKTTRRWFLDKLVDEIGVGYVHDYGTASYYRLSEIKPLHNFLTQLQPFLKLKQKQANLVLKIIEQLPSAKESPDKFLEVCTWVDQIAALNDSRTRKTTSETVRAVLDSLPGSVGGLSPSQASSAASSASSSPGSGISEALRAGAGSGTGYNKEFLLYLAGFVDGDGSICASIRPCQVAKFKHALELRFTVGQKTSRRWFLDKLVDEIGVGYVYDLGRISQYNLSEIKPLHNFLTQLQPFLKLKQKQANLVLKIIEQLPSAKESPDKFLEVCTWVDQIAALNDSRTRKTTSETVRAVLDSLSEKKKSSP
Source text: as §1, §2

LOX 3-4m.1500 = target: T3, LOX 3-4m.1500 (artificial (I-CreI derived))
T3 chain: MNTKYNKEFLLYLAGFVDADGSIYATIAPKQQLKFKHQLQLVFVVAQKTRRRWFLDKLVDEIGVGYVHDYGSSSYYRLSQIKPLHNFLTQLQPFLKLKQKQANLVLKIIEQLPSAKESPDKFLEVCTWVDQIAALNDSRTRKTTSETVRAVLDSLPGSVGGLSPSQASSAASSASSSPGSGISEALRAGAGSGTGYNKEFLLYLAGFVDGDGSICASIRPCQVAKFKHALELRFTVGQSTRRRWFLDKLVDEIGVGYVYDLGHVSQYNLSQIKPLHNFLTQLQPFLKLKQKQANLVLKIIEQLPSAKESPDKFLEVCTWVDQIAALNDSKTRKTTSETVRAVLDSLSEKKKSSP
Source text: as §1, §2

LOX 3-4m.1421 = target: T4, LOX 3-4m.1421 (artificial (I-CreI derived))
T4 chain: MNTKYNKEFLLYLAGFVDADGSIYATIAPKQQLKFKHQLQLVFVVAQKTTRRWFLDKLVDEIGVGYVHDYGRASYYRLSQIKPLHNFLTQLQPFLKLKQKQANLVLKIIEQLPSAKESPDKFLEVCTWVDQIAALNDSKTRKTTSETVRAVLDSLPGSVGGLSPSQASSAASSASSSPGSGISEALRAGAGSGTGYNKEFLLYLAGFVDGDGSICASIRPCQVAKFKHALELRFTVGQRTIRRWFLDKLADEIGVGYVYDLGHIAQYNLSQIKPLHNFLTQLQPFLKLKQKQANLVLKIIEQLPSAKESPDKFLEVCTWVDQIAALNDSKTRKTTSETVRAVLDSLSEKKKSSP
Source text: as §1, §2

LOX 3-4m.2248 = target: T5, LOX 3-4m.2248 (artificial (I-CreI derived))
T5 chain: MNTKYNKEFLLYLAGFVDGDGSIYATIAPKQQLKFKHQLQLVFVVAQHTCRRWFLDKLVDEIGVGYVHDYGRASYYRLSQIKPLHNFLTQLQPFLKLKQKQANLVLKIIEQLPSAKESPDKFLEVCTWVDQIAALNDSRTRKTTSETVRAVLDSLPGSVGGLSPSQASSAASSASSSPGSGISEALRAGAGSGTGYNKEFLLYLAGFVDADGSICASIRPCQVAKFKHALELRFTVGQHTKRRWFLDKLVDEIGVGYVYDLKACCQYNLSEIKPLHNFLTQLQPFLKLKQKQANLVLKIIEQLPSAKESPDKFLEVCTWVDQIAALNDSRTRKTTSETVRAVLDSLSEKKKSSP
Source text: as §1
as §2, with “ATAT” for “ATGA”, “200)” for “220)”

LOX 3-4m.2313 = target: T6, LOX 3-4m.2313 (artificial (I-CreI derived))
T6 chain: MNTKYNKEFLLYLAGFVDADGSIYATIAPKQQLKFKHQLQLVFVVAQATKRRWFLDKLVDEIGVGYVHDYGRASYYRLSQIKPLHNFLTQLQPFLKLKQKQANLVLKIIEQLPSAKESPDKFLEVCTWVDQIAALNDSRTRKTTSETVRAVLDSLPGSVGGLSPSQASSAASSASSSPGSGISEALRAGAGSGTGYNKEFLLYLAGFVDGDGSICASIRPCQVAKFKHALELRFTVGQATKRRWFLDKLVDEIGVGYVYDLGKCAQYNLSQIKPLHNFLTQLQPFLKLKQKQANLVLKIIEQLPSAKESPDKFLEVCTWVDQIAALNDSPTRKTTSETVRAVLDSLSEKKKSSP
Source text: as §1
as §2, with “ATAT” for “ATGA”, “200)” for “220)”

LOX 3-4m.2329 = target: T7, LOX 3-4m.2329 (artificial (I-CreI derived))
T7 chain: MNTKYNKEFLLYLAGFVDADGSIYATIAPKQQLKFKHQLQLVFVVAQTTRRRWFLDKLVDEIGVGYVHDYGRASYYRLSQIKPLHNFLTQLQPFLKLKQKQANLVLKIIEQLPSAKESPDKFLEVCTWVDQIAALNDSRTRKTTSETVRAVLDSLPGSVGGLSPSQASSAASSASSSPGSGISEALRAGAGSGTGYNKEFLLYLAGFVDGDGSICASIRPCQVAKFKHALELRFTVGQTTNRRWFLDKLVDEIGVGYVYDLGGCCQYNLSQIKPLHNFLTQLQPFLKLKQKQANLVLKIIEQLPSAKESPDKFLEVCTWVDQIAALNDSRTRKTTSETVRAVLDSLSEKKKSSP
Source text: as §1
as §2, with “ATAT” for “ATGA”, “200)” for “220)”

LOX 3-4m.2330 = target: T8, LOX 3-4m.2330 (artificial (I-CreI derived))
T8 chain: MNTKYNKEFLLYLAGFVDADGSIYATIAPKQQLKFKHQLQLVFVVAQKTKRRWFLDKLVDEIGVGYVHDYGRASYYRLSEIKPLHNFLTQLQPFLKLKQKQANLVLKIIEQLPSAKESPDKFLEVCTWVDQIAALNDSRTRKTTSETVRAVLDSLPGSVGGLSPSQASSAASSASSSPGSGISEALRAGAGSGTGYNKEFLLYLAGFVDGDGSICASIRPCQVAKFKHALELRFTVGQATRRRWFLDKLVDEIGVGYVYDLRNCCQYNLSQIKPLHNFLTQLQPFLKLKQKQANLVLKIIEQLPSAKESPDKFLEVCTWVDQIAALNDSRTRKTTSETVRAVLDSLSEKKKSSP
Source text: as §1
as §2, with “ATAT” for “ATGA”, “200)” for “220)”

LOX 3-4m.1875 = target: T9, LOX 3-4m.1875 (artificial (I-CreI derived))
T9 chain: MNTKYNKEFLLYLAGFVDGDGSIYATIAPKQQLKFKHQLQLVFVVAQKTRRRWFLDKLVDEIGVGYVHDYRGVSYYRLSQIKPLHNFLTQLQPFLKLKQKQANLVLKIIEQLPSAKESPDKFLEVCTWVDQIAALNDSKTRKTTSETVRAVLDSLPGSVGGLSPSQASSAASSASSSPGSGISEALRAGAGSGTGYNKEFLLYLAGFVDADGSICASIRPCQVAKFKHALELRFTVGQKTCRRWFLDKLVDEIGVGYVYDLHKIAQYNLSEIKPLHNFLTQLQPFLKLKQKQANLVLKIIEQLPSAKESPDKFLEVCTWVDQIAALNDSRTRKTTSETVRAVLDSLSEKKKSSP
Source text: as §1
as §2, with “a GCAA” for “an ATGA”, “267)” for “220)”

LOX 3-4m.1868 = target: T10, LOX 3-4m.1868 (artificial (I-CreI derived))
T10 chain: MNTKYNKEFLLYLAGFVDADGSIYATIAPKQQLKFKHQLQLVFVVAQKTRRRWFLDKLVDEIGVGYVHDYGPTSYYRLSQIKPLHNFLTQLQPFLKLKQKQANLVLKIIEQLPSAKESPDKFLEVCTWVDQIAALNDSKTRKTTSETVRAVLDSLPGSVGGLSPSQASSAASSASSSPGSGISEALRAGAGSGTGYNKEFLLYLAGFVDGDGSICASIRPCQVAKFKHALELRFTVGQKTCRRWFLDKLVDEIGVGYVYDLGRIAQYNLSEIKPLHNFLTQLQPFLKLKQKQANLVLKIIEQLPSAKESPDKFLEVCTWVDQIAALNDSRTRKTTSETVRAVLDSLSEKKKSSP
Source text: as §1
as §2, with “a GCAA” for “an ATGA”, “267)” for “220)”

LOX 3-4m.1854 = target: T11, LOX 3-4m.1854 (artificial (I-CreI derived))
T11 chain: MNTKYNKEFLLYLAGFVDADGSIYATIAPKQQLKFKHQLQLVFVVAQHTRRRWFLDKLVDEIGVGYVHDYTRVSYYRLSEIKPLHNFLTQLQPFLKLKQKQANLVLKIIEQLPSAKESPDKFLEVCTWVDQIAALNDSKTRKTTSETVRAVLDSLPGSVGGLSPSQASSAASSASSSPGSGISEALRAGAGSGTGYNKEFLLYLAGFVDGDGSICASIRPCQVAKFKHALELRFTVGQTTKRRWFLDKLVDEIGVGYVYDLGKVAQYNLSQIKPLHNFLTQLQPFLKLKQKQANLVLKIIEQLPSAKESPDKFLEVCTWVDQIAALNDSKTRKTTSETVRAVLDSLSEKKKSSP
Source text: as §1
as §2, with “a GCAA” for “an ATGA”, “267)” for “220)”

LOX 3-4m.1789 = target: T12, LOX 3-4m.1789 (artificial (I-CreI derived))
T12 chain: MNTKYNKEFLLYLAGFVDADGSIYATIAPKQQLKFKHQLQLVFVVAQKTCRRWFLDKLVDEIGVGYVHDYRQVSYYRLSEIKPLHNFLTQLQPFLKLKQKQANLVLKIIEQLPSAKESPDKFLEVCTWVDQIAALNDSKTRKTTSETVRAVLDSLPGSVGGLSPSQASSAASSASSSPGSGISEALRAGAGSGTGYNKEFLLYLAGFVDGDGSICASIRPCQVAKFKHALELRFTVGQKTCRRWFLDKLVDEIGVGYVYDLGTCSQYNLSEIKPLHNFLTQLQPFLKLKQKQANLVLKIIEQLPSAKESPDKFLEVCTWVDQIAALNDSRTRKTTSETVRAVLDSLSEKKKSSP
Source text: as §1
as §2, with “a GCAA” for “an ATGA”, “267)” for “220)”

B1: LOX 3-4 ATGA (dsDNA)
DNA 1: GTATAGCATATGATATACGAAG
DNA 2: CTTCGTATATCATATGCTATAC
B1 was tested, and the activity (LOX 3-4m.1506) was 8.2 % GFP, the activity (LOX 3-4m.1486) was 9.23 % GFP and the activity (LOX 3-4m.1500) was 3.6 % GFP. The activity (LOX 3-4m.1421) was 8.37 % GFP.

B2: LOX 3-4 ATAT (dsDNA)
DNA 1: GTATAGCATATATTATACGAAG
DNA 2: CTTCGTATAATATATGCTATAC
B2 was tested, and the activity (LOX 3-4m.2248) was 13.8 % GFP, the activity (LOX 3-4m.2313) was 13.1 % GFP and the activity (LOX 3-4m.2329) was 14.9 % GFP. For the same binder, the activity (LOX 3-4m.2330) was 13.9 % GFP.

B3: LOX 3-4 GCAA (dsDNA)
DNA 1: GTATAGCATGCAATATACGAAG
DNA 2: CTTCGTATATTGCATGCTATAC
B3 showed an activity (LOX 3-4m.1875) of 8.14 % GFP, an activity (LOX 3-4m.1868) of 7.56 % GFP and an activity (LOX 3-4m.1854) of 7.67 % GFP. It also gave an activity (LOX 3-4m.1789) of 8.9 % GFP.
